What was measured:
hASIC1a = target: T1, hASIC1a (Homo sapiens, UniProt P78348); assay: Whole-cell patch clamp, acid-induced hASIC1a currents in stable CHO-K1 cells; format: cell-based
T1 construct: expressed in transfected cells
T1 sequence (P78348 1-528): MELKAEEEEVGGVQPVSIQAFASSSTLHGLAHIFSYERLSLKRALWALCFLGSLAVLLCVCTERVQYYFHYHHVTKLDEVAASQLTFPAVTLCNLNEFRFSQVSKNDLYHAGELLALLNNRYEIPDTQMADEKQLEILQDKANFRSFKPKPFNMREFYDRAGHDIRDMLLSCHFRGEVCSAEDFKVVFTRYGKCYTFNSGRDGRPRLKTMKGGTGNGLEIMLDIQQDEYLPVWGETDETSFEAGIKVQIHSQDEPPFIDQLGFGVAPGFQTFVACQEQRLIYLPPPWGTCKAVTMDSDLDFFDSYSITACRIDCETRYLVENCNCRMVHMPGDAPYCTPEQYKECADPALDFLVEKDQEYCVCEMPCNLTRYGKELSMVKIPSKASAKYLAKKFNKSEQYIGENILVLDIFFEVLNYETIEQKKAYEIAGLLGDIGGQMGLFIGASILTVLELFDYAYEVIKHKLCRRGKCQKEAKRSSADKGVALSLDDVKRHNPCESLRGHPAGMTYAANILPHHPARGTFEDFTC
Experimental: Electrophysiological Experiments. The inward cellular ASIC1a current was recorded from a single cell using standard whole-cell recording techniques by a patch-clamp amplifier (Axon 200B; Axon Instruments). Membrane currents were sampled and analyzed using a Digidata 1320A interface and a personal computer with Clampex and Clampfit software (Version 9.0.1; Axon Instruments). For a typical experiment, the extracellular fluid (ECF) used contained 150 mM NaCl, 5 mM KCl, 10 mM HEPES, 10 mM D-glucose, 2 mM CaCl2, and 1.0 mM MgCl2, with the osmotic pressure in the range of 320-335 mOsm, and pH 7.4 adjusted with 5 M NaOH. Patch electrodes (4-6 MΩ) contained 30 mM NaCl, 120 mM KCl, 0.5 mM CaCl2, 1 mM MgCl2, 10 mM HEPES, 2 mM MgATP, and 5 mM EGTA (pH 7.2 adjusted with 5 M KOH) at 300 mOsm. The ASIC1a activating ECF is identical to the normal ECF, except that MES was used to replace HEPES to maintain the ECF at pH 6.0. A coverslip with discretely distributed individual CHO-ASIC1a stable cells (6H7) on the surface was placed into a recording chamber under a constant perfusion (~2-3 mL/min) generated by an ALA 8 channel perfusion system (ALA Scientific Instruments Inc.) mounted on an inverted microscope. After achieving the break-in (whole-cell) configuration, the cell was voltage clamped at a holding potential of −70 mV. The normal ECF (pH 7.4) was first perfused onto the patched cell, and then, the activating ECF of pH 6.0 was rapidly applied to elicit a maximum inward ASIC1a current as control current. When testing the inhibition effect of the antibody, ECFs of pH 7.4 containing different concentrations of ASC06-IgG1 were perfused from low to high concentration into the recording chamber for 10-15 min. To measure the inhibition of the current, the activating ECFs of pH 6.0 containing the corresponding concentrations of the testing antibodies were applied to the same patched 6H7 cell to generate the inward currents that can be normalized to the control current of the same cell. […] Data acquired from four to five cells were used for statistical calculation of inhibition effects.
The function of ASC06-IgG1 was characterized using electrophysiology approach. The effect of ASC06-IgG1 antibody on the acid-induced, hASIC1a-mediated electrical current in cells was analyzed. PcTx1 was used as a positive control. […] The amplitudes of the hASIC1a-mediated inward currents of the stable cells were recorded and quantitated in the absence and presence of ASC06-IgG1, with venom peptide PcTx1 (100 nM) used as positive control. […] Unlike the sustained inhibition with the antibody after washing, the inhibition with PcTx1 could be readily washed out within 5 minutes (FIG. 5C).

[1] = system: hASIC1a-eYFP stable cells (6H7); assay: Acidosis-induced cell death, CCK8 and LDH release; format: cell-based
Experimental: Acidosis-Induced Cell Death. The hASIC1a-eYFP stable cells (6H7) and CHO-K1 cells were seeded in a 96-well plate at a density of 10,000 cells per well 1 d before treatment. ECF solutions at pH 5.5, 6.0, and 7.4 were used to treat the cells at 37° C. for 6 h. To test the rescuing effect of ASC06-IgG1, the antibody was dissolved in an acidic ECF (pH 5.5) to make the final antibody concentrations of 0, 50, 100, 300, 500, and 1,000 nM. The 6H7 cells were first preincubated with the antibody at the corresponding concentrations at 37° C. for 30 min in cell media. After replacing the cell media with the corresponding acidic ECFs, the cells were incubated at 37° C. for 6 h, washed with a PBS buffer (pH 7.4), and then cultured in a 1% FBS DMEM/F-12K media overnight. The supernatants of the overnight culture were collected for the LDH release measurement using a LDH Assay kit (#88953; Thermo Fisher Scientific). The cells viability was determined using the CCK-8 assay kit (#CK04; Dojindo).
Extracellular acidosis in stroke or ischemia-reperfusion injury is known to induce the activation of ASIC1a channels, which leads to neuronal death in the central nervous system, most likely through transient increase of intracellular calcium and related cell signaling mediated by ASIC1a. The survival of hASIC1a overexpressing stable cells was assessed by measuring the enzymatic activities of cytoplasmic dehydrogenases (CCK8 assay) and the concentrations of lactate dehydrogenase (LDH) secreted into the cell media, which reflect the cell viability and cytotoxicity, respectively. […] In the presence of […] ASC06-IgG1, approximately 45% of the ASIC1a expressing stable cells survived at pH 5.5 comparing to about a 5% survival rate in the absence of the antibody. Consistent with CCK8 result, the concentration of LDH released into cell media decreased after the addition of ASC06-IgG1 is also in a dose-dependent manner (FIG. 7D).

hASIC1a F252A = assay: FACS binding to alanine mutant hASIC1a-eYFP on CHO-K1 cells; format: cell-based, human; conditions: vs WT hASIC1a
Experimental: To confirm the role of these amino acids, alanine mutagenesis was performed and four amino acids are very important for antibody binding were identified. Plasmid encoding single amino acid mutation of hASIC1a-eYFP was constructed and transient transfected into CHO-K1 cells. FACS binding assay was then performed to test whether the ASC06-IgG1 still binds to cell surface expressing mutated hASIC1a.

B1: ASC06-IgG1: ASC06 antibody converted into a full length IgG1 form (antibody, V domains shown)
VH: QVQLQQSGGGLVQPGGSLRLSCAASGFTFSSYAMSWVRQAPGKGLEWVSAISGSGGSTYYADSVKGRFTISRDNSKNTLYLQMNSLRAEDTAVYYCAKDSFYGYSKGDWGQGTLVTVSS
VL: QSALTQPASVSGSPGQSITISCTGTSSDVGAYNYVSWYQQQPGKAPKLMIYGVSNRPSGVSNRFSGSKSGNAASLTISGLQAEDEADYYCSSYTSSSTYVFGTGTKLTVLG
In the case of B1, the “duration of sustained inhibition during washout” value (hASIC1a; after washing) is reported as 30 min, the “maximal inhibition of the acid (pH 6.0)-induced currents” value (hASIC1a; dose-dependent) is reported as “up to 80%” and the “survival of ASIC1a expressing stable cells” value ([1]; 1,000 nM antibody, pH 5.5, CCK8) is reported as “approximately 45%”. For the same molecule, the “protective effect against acidosis-induced cell death, in words” value ([1]; pH 5.5) was “significant dose-dependent protective effect”, the “concentration of LDH released into cell media” value ([1]; pH 5.5, dose-dependent) was “decreased” and the “binding to hASIC1a F252A mutation” value (hASIC1a F252A) was “so does”.

Reference: US12692310B2, “ASIC1 channel antagonist antibody” (ShanghaiTech University, priority 2019, dated 2026)
